We go through one molecule from patent US20200383917A1 (NORTHWESTERN UNIVERSITY, published 2020).

For the test, the target named is T1, CD11c on the surface of mouse bone marrow-derived dendritic cells (BMDCs) (mouse, UniProt Q9QXH4 20-1169).
T1 sequence (looked up): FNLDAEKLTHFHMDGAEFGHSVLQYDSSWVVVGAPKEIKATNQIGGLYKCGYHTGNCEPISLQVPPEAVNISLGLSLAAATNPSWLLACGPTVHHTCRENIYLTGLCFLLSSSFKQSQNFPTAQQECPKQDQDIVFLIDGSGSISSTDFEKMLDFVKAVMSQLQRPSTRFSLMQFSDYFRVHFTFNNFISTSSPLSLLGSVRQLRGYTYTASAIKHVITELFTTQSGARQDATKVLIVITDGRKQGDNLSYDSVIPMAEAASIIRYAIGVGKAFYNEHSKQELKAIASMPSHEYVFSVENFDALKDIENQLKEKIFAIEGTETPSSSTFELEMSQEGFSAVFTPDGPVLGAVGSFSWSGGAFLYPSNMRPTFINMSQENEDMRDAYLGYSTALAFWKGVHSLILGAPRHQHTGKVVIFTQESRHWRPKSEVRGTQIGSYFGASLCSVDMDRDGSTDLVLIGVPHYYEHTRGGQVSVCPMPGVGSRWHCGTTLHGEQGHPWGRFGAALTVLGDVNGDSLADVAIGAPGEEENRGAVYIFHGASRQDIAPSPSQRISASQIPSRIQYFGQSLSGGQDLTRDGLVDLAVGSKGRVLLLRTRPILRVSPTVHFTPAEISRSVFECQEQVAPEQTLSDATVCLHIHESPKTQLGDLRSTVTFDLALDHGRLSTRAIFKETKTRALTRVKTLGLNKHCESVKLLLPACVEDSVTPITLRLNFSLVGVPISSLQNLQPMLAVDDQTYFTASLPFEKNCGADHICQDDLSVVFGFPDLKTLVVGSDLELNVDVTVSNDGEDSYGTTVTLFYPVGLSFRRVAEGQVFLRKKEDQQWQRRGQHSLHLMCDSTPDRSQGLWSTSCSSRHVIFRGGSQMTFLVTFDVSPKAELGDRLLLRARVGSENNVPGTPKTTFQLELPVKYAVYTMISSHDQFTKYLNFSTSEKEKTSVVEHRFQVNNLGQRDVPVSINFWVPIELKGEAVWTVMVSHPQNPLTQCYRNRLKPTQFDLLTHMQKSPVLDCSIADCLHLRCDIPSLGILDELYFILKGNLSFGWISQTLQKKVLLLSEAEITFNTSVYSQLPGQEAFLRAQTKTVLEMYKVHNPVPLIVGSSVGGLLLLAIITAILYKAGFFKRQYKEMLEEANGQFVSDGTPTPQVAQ
Kind of test: cell-based or functional assay.

Ends that are not written are not given here.

B1: P-D2-PEG5-PS (PEG-bl-PPS polymersome displaying the P-D2-PEG5-Lys-PA targeting peptide construct) (peptide)
peptide: GGVTLTYQFAAGPRDK
modifications: not fully specified (N-terminus); also: displayed on PEG-bl-PPS polymersome
Take B1: the “cellular uptake by BMDCs (flow cytometry, nile red-loaded PS, 1 h incubation)” value is greater than 3 fold.
